The target in assay [1] is Fcγ receptors on human granulocytes (FcγRII and RIII). In words: FACS on granulocytes from human blood, antibody 10 µg/ml; no antibody: 1.2.
The target in assay [2] is Fcγ receptors on human monocytes (FcγRI and RII). In words: FACS on monocytes from human blood, antibody 10 µg/ml; no antibody: 8.5.
Assay [3] deals with Fcγ receptor on human NK cells (FcγRIII) (human) (UniProt P08637). In words: FACS on NK cells from human blood, antibody 10 µg/ml; no antibody: 0.03.
Assay [4] has as its target human complement factor C3 (from human pooled serum) (human) (UniProt P01024). Put plainly: C3 ELISA, antibody coated, human pooled serum; background OD405 0.098. Background: In an ELISA, binding on a coated surface is turned into a signal by an enzyme label.
Assay [5] concerns the target human complement factor C1q (human) (UniProt P02745). In words: C1q ELISA, antibody coated; background OD405 0.079.

Sequence of human complement factor C1q (human) (P02745 23-245 limits assumed, chain 1 of 3): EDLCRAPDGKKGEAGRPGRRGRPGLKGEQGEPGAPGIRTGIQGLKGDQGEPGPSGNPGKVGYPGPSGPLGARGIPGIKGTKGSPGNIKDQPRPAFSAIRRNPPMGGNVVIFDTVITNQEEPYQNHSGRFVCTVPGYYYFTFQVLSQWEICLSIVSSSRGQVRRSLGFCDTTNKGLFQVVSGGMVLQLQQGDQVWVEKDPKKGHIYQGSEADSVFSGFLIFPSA
Sequence of human complement factor C1q (human) (P02746 28-253 limits assumed, chain 2 of 3, further chain): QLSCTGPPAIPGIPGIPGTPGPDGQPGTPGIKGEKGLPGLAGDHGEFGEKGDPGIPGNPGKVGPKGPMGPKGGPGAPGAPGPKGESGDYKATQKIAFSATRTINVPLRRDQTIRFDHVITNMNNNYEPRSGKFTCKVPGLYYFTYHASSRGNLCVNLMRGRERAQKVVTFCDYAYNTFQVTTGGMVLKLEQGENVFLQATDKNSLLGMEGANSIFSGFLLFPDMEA
Sequence of human complement factor C1q (human) (P02747 29-245 limits assumed, chain 3 of 3, further chain): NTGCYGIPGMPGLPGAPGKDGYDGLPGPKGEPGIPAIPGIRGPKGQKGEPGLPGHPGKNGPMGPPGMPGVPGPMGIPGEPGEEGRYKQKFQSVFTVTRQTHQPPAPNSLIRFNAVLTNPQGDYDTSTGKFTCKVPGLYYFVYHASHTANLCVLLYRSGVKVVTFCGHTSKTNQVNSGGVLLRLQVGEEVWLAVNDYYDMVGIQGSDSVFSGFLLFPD
Sequence of Fcγ receptor on human NK cells (FcγRIII) (human) (P08637 17-254): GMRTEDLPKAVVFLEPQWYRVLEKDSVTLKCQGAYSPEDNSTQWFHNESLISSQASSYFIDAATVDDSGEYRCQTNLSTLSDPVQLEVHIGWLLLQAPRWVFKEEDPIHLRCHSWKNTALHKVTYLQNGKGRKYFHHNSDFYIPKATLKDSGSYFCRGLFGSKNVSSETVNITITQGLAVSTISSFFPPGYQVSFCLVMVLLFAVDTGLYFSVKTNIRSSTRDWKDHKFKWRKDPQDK
Sequence of human complement factor C3 (from human pooled serum) (human) (P01024 23-1663 limits assumed): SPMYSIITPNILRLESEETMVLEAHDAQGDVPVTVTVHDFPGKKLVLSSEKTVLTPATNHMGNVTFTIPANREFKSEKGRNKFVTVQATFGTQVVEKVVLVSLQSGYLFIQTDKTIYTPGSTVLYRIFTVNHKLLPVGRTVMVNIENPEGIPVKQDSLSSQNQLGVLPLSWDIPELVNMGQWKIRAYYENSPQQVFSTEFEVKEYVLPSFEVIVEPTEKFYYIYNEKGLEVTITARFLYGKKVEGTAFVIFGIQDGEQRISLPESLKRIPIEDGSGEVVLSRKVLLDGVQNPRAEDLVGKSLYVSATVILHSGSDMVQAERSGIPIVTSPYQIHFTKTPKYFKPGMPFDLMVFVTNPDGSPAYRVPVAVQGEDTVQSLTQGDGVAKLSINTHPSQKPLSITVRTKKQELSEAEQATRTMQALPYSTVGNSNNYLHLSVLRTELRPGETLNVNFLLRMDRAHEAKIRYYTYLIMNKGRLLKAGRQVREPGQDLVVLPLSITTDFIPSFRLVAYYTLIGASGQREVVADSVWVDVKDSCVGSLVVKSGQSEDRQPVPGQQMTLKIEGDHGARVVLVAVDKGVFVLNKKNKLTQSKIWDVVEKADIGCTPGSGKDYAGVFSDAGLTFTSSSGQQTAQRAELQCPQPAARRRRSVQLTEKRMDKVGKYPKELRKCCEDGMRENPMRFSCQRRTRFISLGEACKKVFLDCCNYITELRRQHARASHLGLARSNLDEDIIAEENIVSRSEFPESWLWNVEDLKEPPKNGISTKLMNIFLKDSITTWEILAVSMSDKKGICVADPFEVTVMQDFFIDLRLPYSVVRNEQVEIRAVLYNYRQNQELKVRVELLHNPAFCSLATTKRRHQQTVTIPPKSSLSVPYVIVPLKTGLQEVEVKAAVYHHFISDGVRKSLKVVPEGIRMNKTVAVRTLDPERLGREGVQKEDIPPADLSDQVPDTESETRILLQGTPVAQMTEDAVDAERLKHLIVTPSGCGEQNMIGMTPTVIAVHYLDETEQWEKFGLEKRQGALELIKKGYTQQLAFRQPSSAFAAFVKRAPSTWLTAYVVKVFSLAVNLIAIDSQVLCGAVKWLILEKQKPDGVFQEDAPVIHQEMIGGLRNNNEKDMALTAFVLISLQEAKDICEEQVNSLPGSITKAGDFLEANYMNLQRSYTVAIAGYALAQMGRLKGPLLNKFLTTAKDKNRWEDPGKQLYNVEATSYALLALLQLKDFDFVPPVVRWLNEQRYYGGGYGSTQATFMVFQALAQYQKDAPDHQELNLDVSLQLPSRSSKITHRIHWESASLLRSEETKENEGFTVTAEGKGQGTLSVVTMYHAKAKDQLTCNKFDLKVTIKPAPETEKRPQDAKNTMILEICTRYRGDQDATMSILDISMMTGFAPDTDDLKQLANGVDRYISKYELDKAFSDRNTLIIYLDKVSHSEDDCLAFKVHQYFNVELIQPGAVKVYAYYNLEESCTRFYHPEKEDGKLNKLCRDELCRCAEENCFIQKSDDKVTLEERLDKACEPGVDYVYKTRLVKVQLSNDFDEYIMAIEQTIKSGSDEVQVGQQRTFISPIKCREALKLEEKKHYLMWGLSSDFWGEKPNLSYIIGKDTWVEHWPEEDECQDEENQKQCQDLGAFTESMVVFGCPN

For “HuMab 002 Fc variant IgG4v1 (S228P; L235E) (antibody)”, the % granulocytes binding antibody in assay [1] amounted to 1.6%. Moreover, the % monocytes binding antibody in assay [2] amounted to 14.5%.
In turn, “human IgG4 (CLB, the Netherlands), negative control (antibody)” registered a % NK cells binding antibody in assay [3] of 0.06%. The values for the Bmax (OD405 at 10 µg/ml) in assay [4] and in assay [5] were 0.182 OD405 and 0.222 OD405, respectively. In assay [2], this substance gave a % monocytes binding antibody of 9.4%.

Values taken from patent US20050226876A1.
